Starred links: 1 amine or outer side, 2 acyl side, 3 side chain; linkers in the order of their positions; H or OH if unused. Positions of bridges follow the written chain, without caps; N, C: chain ends. Non-standard residues stand in square brackets, D forms with d. Primed or numbered codes have the meaning given here. PyrS2″ = (S)-3-amino-1-((pent-4-en-1-yloxy)carbonyl)pyrrolidine-3-carboxylic acid (stapling residue), C=CCCCOC(=O)N1CC[C@@](N[*:1])(C(=O)[*:2])C1; B5(4) = 2,2-bis(4-pentenyl)glycine = 2-amino-2-(pent-4-en-1-yl)hept-6-enoic acid (stitching residue), C=CCCCC(CCCC=C)(N[*:1])C(=O)[*:2]; B5(5) = 2,2-bis(4-pentenyl)glycine, 2-amino-2-(pent-4-en-1-yl)hept-6-enoic acid (stitching residue), C=CCCCC(CCCC=C)(N[*:1])C(=O)[*:2]; TfeGA = (S)-2-amino-3-((carboxymethyl)(2,2,2-trifluoroethyl)amino)propanoic acid, O=C([C@H](CN(CC(=O)[*:3])CC(F)(F)F)N[*:1])[*:2]; (EtSSpy)AspE = (S)-2-amino-4-oxo-4-(2-(pyridin-2-yldisulfaneyl)ethoxy)butanoic acid, O=C(C[C@H](N[*:1])C(=O)[*:2])OCCSSc1ccccn1; PyrS2 = (S)-3-amino-1-((pent-4-en-1-yloxy)carbonyl)pyrrolidine-3-carboxylic acid, C=CCCCOC(=O)N1CC[C@@](N[*:1])(C(=O)[*:2])C1; (Ac)GA = (S)-2-amino-3-(N-(carboxymethyl)acetamido)propanoic acid, CC(=O)N(CC(=O)[*:3])C[C@H](N[*:1])C(=O)[*:2]; GA = (S)-2-amino-3-((carboxymethyl)amino)propanoic acid, O=C([C@H](CNCC(=O)[*:3])N[*:1])[*:2]; AspSH = (S)-2-amino-4-mercapto-4-oxobutanoic acid, O=C(C[C@H](N[*:1])C(=O)[*:2])S[*:3]; B5 = 2-amino-2-(pent-4-en-1-yl)hept-6-enoic acid, C=CCCCC(CCCC=C)(N[*:1])C(=O)[*:2]; 2NH2F″ = O=C([C@H](Cc1ccccc1N[*:3])N[*:1])[*:2]; Phe(2-Cl) = N[C@@H](Cc1ccccc1Cl)C(=O)O; Phe(2-Me) = Cc1ccccc1C[C@H](N)C(=O)O; Bta = N[C@@H](Cc1csc2ccccc12)C(=O)O; Lys(iPr) = CC(C)NCCCC[C@H](N)C(=O)O; αAllylPro = C=CC[C@@]1(C(=O)O)CCCN1; tBuAla = CC(C)(C)C[C@H](N)C(=O)O; 3Thi = N[C@@H](Cc1ccsc1)C(=O)O; PyrS2(4) = not defined here; TfeGA″ = not defined here
Each binder was assayed against T1, B-cat-Halo (beta-catenin HaloTag fusion expressed in HEK293 cells) (UniProt P35222 1-781) (assay: cell-based or functional assay).
T1 sequence (looked up): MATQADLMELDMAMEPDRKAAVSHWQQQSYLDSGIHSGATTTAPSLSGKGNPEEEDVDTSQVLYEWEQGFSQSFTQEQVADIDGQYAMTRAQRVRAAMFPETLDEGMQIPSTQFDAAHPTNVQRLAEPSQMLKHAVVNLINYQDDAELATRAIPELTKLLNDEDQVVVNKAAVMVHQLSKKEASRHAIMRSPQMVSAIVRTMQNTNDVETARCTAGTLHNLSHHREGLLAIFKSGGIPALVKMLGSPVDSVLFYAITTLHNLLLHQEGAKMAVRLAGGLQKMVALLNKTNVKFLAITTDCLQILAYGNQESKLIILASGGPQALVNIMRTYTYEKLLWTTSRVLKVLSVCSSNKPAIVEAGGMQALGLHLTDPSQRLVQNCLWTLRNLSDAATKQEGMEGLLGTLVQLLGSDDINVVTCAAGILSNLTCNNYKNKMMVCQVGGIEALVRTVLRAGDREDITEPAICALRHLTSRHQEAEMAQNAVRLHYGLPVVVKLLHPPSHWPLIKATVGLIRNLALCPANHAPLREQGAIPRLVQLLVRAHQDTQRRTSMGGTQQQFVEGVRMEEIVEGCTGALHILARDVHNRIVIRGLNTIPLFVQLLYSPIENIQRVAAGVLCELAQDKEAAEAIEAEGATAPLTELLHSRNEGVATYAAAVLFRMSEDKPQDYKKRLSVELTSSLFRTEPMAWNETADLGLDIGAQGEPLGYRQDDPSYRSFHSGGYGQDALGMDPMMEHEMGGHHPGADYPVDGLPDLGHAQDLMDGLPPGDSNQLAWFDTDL
For Ac-[αAllylPro]D[tBuAla][B5]D[GA]AAFN[PyrS2][3Thi][Bta]Q-NH2 (staple 1-4, 4-11) [I-1733], the “NanoBRET Abs IC50” value was greater than 20 µM.
In the case of Ac-[αAllylPro]D[tBuAla][B5(5)]D[TfeGA]AAFL[PyrS2″][3Thi][Bta]L-NH2 (staple 1-4, 4-11) [I-1747], the “NanoBRET Abs IC50” value is reported as greater than 20 µM.
For Ac-[αAllylPro][(EtSSpy)AspE][tBuAla][B5]DDAAFN[PyrS2][Phe(2-Cl)][Bta]Q-NH2 (staple 1-4, 4-11; not fully specified) [I-1724], the “NanoBRET Abs IC50” value was 29.7 µM.
In the case of Ac-[αAllylPro][AspSH][tBuAla][B5]DDAAFN[PyrS2][Phe(2-Cl)][Bta]Q-NH2 (staple 1-4, 4-11; not fully specified) [I-1722], the “NanoBRET Abs IC50” value is reported as greater than 20 µM.
For Ac-[αAllylPro]D[tBuAla][B5(4)]DDAA[2NH2F″]N[PyrS2(4)][Phe(2-Cl)][Bta]Q-NH2 (staple 1-4, 4-11; not fully specified; reading uncertain) [I-1727], the “NanoBRET Abs IC50” value was 34.1 µM.
For Ac-[αAllylPro]D[tBuAla][B5(4)]D[GA]AAFN[PyrS2(4)][3Thi][Bta]Q-NH2 (staple 1-4, 4-11; not fully specified; reading uncertain) [I-1732], the “NanoBRET Abs IC50” value was greater than 20 µM.
Ac-[αAllylPro]D[tBuAla][B5]D[TfeGA]AAFL[PyrS2][Phe(2-Me)][Bta]Q-NH2 (staple 1-4, 4-11; also: -CH=CH- in each staple reduced to -CH2-CH2-) [I-1726] was tested, and the “NanoBRET Abs IC50” value was greater than 20 µM.
Ac-[αAllylPro]D[tBuAla][B5]D[GA]AAFL[PyrS2][3Thi][Bta]Q-NH2 (staple 1-4, 4-11) [I-1731] was tested, and the “NanoBRET Abs IC50” value was 29.5 µM.
For Ac-[αAllylPro]D[tBuAla][B5]D[TfeGA]AAFL[PyrS2][Phe(2-Me)][Bta]Q-NH2 (staple 1-4, 4-11) [I-1725], the “NanoBRET Abs IC50” value was 10 µM.
For Ac-[αAllylPro]D[tBuAla][B5]D[(Ac)GA]AAFL[PyrS2][3Thi][Bta]Q-NH2 (staple 1-4, 4-11) [I-1729], the “NanoBRET Abs IC50” value was 23 µM.

Each binder was assayed against T2, B-cat-Halo (UniProt P35222 1-781) (assay: cell-based or functional assay).
T2 sequence (looked up): T1 sequence (looked up)
For Ac-[αAllylPro]D[tBuAla][B5(5)]D[TfeGA][Lys(iPr)]AFT[PyrS2″][3Thi][Bta]F-NH2 (staple 1-4, 4-11; also: -CH=CH- in each staple reduced to -CH2-CH2-) [I-1768], the “NanoBRET Abs IC50” value was greater than 20 µM.
In the case of Ac-[αAllylPro]D[tBuAla][B5(5)]D[TfeGA][Lys(iPr)]AFL[PyrS2″][3Thi][Bta]L-NH2 (staple 1-4, 4-11) [I-1759], the “NanoBRET Abs IC50” value is reported as greater than 20 µM.
Ac-[αAllylPro]D[tBuAla][B5(5)]D[TfeGA][Lys(iPr)]AFL[PyrS2″][3Thi][Bta]V-NH2 (staple 1-4, 4-11) [I-1763] was tested, and the “NanoBRET Abs IC50” value was greater than 20 µM.
With Ac-[αAllylPro]D[tBuAla][B5(5)]D[TfeGA][Lys(iPr)]AFT[PyrS2″][3Thi][Bta]L-NH2 (staple 1-4, 4-11) [I-1760] the “NanoBRET Abs IC50” value was greater than 20 µM.
Ac-[αAllylPro]D[tBuAla][B5(5)]D[TfeGA″][Lys(iPr)]AFT[PyrS2(4)][3Thi][Bta]F-NH2 (staple 1-4, 4-11; not fully specified; reading uncertain) [I-1762] was tested, and the “NanoBRET Abs IC50” value was greater than 20 µM.
Ac-[αAllylPro]D[tBuAla][B5(5)]D[TfeGA][Lys(iPr)]AFL[PyrS2″][3Thi][Bta]F-NH2 (staple 1-4, 4-11) [I-1761] was tested, and the “NanoBRET Abs IC50” value was greater than 20 µM.

Source: US20240116985A1 (published 2024)
